Residue numbers refer to the chain shown, from its start.

Substrate in data set [1]: CCCCCCCCCCCCC/C=C/[C@@H](O)[C@@H](N)CO
As to the kind of experiment: SPHK activity assay with recombinant mSPHK2 (cytosol/lysates of transfected HEK293 cells, [g-32P]ATP, TLC). The class given is biochemical, mouse. To be noted: other: recombinant SPHK2.

Data set [2] deals with HEK293 cells. The data set is described as follows: Mass levels of SPP in HEK293 cells after transfection with SPHK2. Format: cell-based, human. To be noted: HEK 293 cells after transfection. As to the method:
Mass levels of SPP in HEK293 cells transfected with an empty vector (open bars) or with mSPHK2 (filled bars) or with hSPHK2 (hatched bars) were measured as described hereinbelow. The data are expressed as pmol/nmol phospholipid.
Cells were washed with PBS and scraped in 1 ml of methanol containing 2.5 μl concentrated HCl. Lipids were extracted by adding 2 ml chloroform/1M NaCl (1:1, v/v) and 100 μl 3N NaOH and phases separated. The basic aqueous phase containing SPP, and devoid of sphingosine, ceramide, and the majority of phospholipids, was transferred to a siliconized glass tube. The organic phase was re-extracted with 1 ml methanol/1M NaCl (1:1, v/v) plus 50 μl 3N NaOH, and the aqueous fractions were combined. Mass measurement on SPP in the aqueous phase and total phospholipids in the organic phase were measured exactly as described in Edsall, L. C., Pirianov, G. G., and Spiegel, S., J. Neurosci., 17, (1997) 6952-6960; Edsall, L. C., and Spiegel, S., Anal. Biochem., 272, (1999) 80-86).

The target of another data set is T1, mSPHK2 (Mus musculus, UniProt Q9JIA7).
T1 construct: The open reading frames of mSPHK2 and hSPHK2 encode polypeptides of 617 and 618 amino acids, respectively; made in house; host or cells: HEK293 (ATCC CRL-1573), transient transfection; unpurified cytosol or whole lysate
T1 sequence (Q9JIA7 1-617): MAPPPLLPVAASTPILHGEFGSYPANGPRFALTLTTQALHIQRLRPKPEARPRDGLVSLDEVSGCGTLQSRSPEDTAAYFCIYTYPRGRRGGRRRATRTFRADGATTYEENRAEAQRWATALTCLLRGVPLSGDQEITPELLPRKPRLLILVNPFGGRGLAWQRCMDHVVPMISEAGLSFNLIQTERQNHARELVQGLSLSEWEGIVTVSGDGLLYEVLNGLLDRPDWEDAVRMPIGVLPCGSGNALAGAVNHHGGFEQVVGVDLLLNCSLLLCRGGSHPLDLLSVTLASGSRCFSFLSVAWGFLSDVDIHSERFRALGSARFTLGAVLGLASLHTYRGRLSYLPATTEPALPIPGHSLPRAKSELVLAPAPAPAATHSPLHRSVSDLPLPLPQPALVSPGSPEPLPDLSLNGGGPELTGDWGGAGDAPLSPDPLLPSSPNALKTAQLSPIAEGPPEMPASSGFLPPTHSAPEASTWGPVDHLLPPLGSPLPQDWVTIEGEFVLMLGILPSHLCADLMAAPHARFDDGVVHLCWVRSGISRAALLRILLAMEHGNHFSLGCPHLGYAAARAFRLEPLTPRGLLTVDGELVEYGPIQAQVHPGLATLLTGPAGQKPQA
The data set is described as follows: SPHK activity assay with recombinant mSPHK2 (cytosol/lysates of transfected HEK293 cells, [g-32P]ATP, TLC). The class given is biochemical. To be noted: cytosolic activity, kinase buffer of adjusted pH. As to the method:
Lanes: 1, D-erythro-sphingosine (“D-erythro-Sph”); 2, D-erythro-dihydrosphingosine (“D-erythro-DHS”); 3, D, L-threo-DHS; 4, N,N-dimethylsphingosine (“DMS”); 5, C2-ceramide; 6, C16-ceramide; 7, diacylglycerol; 8, phosphatidylinositol; 9, phytosphingosine. Data are expressed as percentage of phosphorylation of D-erythro-Sph.
SPHK activity in HEK293 cell lysates after transfection as in FIG. 4A was measured with 10 μM D-erythro-sphingosine in the presence of increasing concentrations of DMS.
SPHK activity was measured with varying concentrations of D-erythro-sphingosine in the absence (open circles) or presence of 10 μM (filled squares) or 20 μM DMS (filled triangles).
FIG. 4D are Lineweaver-Burk plots.
In FIGS. 5B and 5C, the SPHK activity in HEK293 cell lysates was measured 24 hours after transfection with mSPHK1 (FIG. 5B) or mSPHK2 (FIG. 5C) in the absence or presence of increasing concentrations of NaCl (open squares) or KCl (filled circles).
FIG. 5E are Lineweaver-Burk plots of data from FIG. 5D.
HEK293 cells were transfected with mSPHK1a (open circles) or mSPHK2 (filled circles) and the activities of each in cell lysates were measured after 24 hours in the presence of the indicated concentrations of Triton X-100 (FIG. 6A) or BSA (FIG. 6B).
HEK293 cells were transfected with mSPHK1a (circles) or mSPHK2 (triangles) and the activities of each in cell lysates were measured after 24 hours in the presence of the indicated concentrations of phosphatidylserine (filled symbols) or phosphatidylcholine (open symbols). Data are expressed as percentage of control activity measured without any additions.
(§1) Human embryonic kidney cells (HEK293, ATCC CRL-1573) and NIH 3T3 fibroblasts (ATCC CRL-1658) were cultured as described in Olivera, A., Kohama, T., Edsall, L. C., Nava, V., Cuvillier, O., Poulton, S., and Spiegel, S., J. Cell Biol., 147 (1999) 545-558. HEK293 cells were seeded at 6×10^5 per well in poly-L-lysine coated 6 well plates. After 24 hours, cells were transfected with 1 μg of vector alone or with vectors containing sphingosine kinase constructs and 6 μl of “Lipofectamine PLUS” reagent plus 4 μl of “Lipofectamine” reagent per well. One to three days after transfection, cells were harvested and lysed by freeze-thawing as described in Kohama, T., Olivera, A., Edsall, L., Nagiec, M. M., Dickson, R., and Spiegel, S., J. Biol. Chem., 273, (1998), 23722-23728. In some experiments, cell lysates were fractionated into cytosol and membrane fractions by centrifugation at 100,000×g for 60 minutes. SPHK activity was determined in the presence of sphingosine, prepared as a complex with 4 mg/ml BSA, and [g-32P] ATP in kinase buffer (Olivera, A. and Spiegel, S. in Methods in Molecular Biology, (Bird, I. M. ed.), (1998), Vol. 105, 233-242, Humana Press, Inc., Totowa, N.J.), containing 200 mM KCl, unless indicated otherwise. 32P-SPP was separated by TLC and quantified with a phosphoimager as previously described.

The test system of data set [3] is HEK293 cells. The data set is described as follows: SPHK activity in HEK293 cells transiently transfected with SPHK expression vectors (cytosol and particulate fractions). The class given is cell-based, human. To be noted: 24 hours after transfection of HEK293 cells. As to the method: In FIG. 3A, HEK 293 cells were transiently transfected with an empty vector or with mSPHK2 or hSPHK2 expression vectors. After 24 hours, SPHK activity was measured in cytosol (open bars) and particulate fractions (filled bars). The data are means±S.D. Parental and vector-transfected cells had basal SPHK activities of 26 and 37 pmol/min/mg, respectively.
as §1

B1: mSPHK2 (Mus musculus) (protein)
chain: T1 sequence (Q9JIA7 1-617)
notes: The open reading frames of mSPHK2 and hSPHK2 encode polypeptides of 617 and 618 amino acids, respectively; made in house; host or cells: HEK293 (ATCC CRL-1573), transient transfection; unpurified cytosol or whole lysate
With B1, in data set [1], the Michaelis constant (Km) turned out to be 3.4 µM.

B2: mSPHK2: murine sphingosine kinase type 2, polypeptide of 617 amino acids (SEQ ID NO 12) (protein)
chain: T1 sequence (Q9JIA7 1-617) with N252S, P510T, L548F
As for B2, the “increase in SPP” value in the data set on HEK293 cells [2] was 2.2 fold. Also, in the data set with mSPHK2, the “pH of optimal activity” value is 7.5. The “increase of in vitro SPHK activity over basal levels” value with HEK293 cells [3] is 20 fold.

B3: hSPHK2: human sphingosine kinase type 2, polypeptide of 618 amino acids (SEQ ID NO 14) (protein)
chain: MAPPPPPLAASTPLLHGEFGSYPARGPRFALTLTSQALHIQRLRPKPEARPRGGLVPLAEVSGCCTLRSRSPSDSAAYFCIYTYPRGRRGARRRATRTFRADGAATYEENRAEAQRWATALTCLLRGLPLPGDGEITPDLLPRPPRLLLLVNPFGGRGLAWQWCKNHVLPMISEAGLSFNLIQTERQNHARELVQGLSLSEWDGIVTVSGDGLLHEVLNGLLDRPDWEEAVKMPVGILPCGSGNALAGAVNQHGGFEPALGLDLLLNCSLLLCRGGGHPLDLLSVTLASGSRCFSFLSVAWGFVSDVDIQSERFRALGSARFTLGTVLGLATLHTYRGRLSYLPATVEPASPTPAHSLPRAKSELTLTPDPAPPMAHSPLHRSVSDLPLPLPQPALASPGSPEPLPILSLNGGGPELAGDWGGAGDAPLSPDPLLSSPPGSPKAALHSPVSEGAPVIPPSSGLPLPTPDARVGASTCGPPDHLLPPLGTPLPPDWVTLEGDFVLMLAISPSHLGADLVAAPHARFDDGLVHLCWVRSGISRAALLRLFLAMERGSHFSLGCPQLGYAAARAFRLEPLTPRGVLTVDGEQVEYGPLQAQMHPGIGTLLTGPPGCPGREP
In the case of B3, in the data set on HEK293 cells [2], the “increase in SPP” value is listed as 3.3 fold. The “increase of in vitro SPHK activity over basal levels” value with HEK293 cells [3] is recorded as 35 fold.

The Km is the concentration of substrate that gives half-maximal velocity.
